Measurements taken from the Immune Epitope Database (IEDB).

What was measured:
[1] = target: HLA-B*15:42; assay: IEDB peptide-MHC binding, purified MHC/competitive/fluorescence; filed as Kd, often an IC50 or EC50 that approximates it; ≥ and ≤ were set here for values at or beyond the usual limits of such assays; settings: source organism: Escherichia coli F11
[2] = target: HLA-B*40:13; assay: as above; settings: source organism: Escherichia coli F11
[3] = target: HLA-B*83:01; assay: as above; settings: source organism: Escherichia coli F11
[4] = target: HLA-A*02:01; assay: as above; settings: source organism: Escherichia coli F11
[5] = target: HLA-B*45:06; assay: as above; settings: source organism: Escherichia coli F11
[6] = target: HLA-B*46:01; assay: IEDB peptide-MHC binding, purified MHC/direct/fluorescence; filed as Kd, often an IC50 or EC50 that approximates it; ≥ and ≤ were set here for values at or beyond the usual limits of such assays
[7] = target: HLA-B*15:02; assay: as above; settings: source organism: dengue virus type 3
[8] = target: HLA-A*24:02; assay: as above; settings: source organism: Influenza A virus (A/tern/Australia/1/04(H2N5))
[9] = target: HLA-B*44:02; assay: as above; settings: source organism: Influenza A virus (A/tern/Australia/1/04(H2N5))
[10] = target: HLA-B*40:01; assay: as above; settings: source organism: Influenza A virus (A/tern/Australia/1/04(H2N5))
[11] = target: HLA-A*02:12; assay: as above; settings: source organism: Influenza A virus(A/swine/Henan/2/2004(H9N2))
[12] = target: HLA-A*02:19; assay: as above; settings: source organism: Influenza A virus(A/swine/Henan/2/2004(H9N2))
[13] = target: HLA-A*02:16; assay: as above; settings: source organism: Influenza A virus(A/swine/Henan/2/2004(H9N2))
[14] = target: HLA-B*27:05; assay: as above; settings: source organism: Influenza A virus (A/tern/Australia/1/04(H2N5))
[15] = target: HLA-A*11:01; assay: as above; settings: source organism: Influenza A virus (A/tern/Australia/1/04(H2N5))
[16] = target: HLA-A*02:11; assay: as above; settings: source organism: Influenza A virus(A/swine/Henan/2/2004(H9N2))
[17] = target: HLA-A*03:01; assay: as above; settings: source organism: Influenza A virus (A/tern/Australia/1/04(H2N5))
[18] = target: HLA-A*02:03; assay: as above; settings: source organism: Influenza A virus(A/swine/Henan/2/2004(H9N2))
[19] = target: HLA-B*58:01; assay: as above; settings: source organism: Influenza A virus (A/tern/Australia/1/04(H2N5))
[20] = target: HLA-A*01:01; assay: as above; settings: source organism: Influenza A virus (A/tern/Australia/1/04(H2N5))
[21] = target: HLA-B*15:01; assay: as above; settings: source organism: Influenza A virus (A/tern/Australia/1/04(H2N5))
[22] = target: HLA-B*08:01; assay: as above; settings: source organism: Influenza A virus (A/tern/Australia/1/04(H2N5))
[23] = target: HLA-A*02:06; assay: as above; settings: source organism: Influenza A virus(A/swine/Henan/2/2004(H9N2))
[24] = target: HLA-B*07:02; assay: as above; settings: source organism: Influenza A virus (A/tern/Australia/1/04(H2N5))
[25] = target: HLA-A*02:01; assay: as above; settings: source organism: Influenza A virus (A/Puerto Rico/8/34/Mount Sinai(H1N1))
[26] = target: HLA-B*18:01; assay: as above; settings: source organism: Influenza A virus (A/tern/Australia/1/04(H2N5))
[27] = target: HLA-A*24:02; assay: IEDB peptide-MHC binding, purified MHC/competitive/fluorescence; ≥ and ≤ were set here for values at or beyond the usual limits of such assays; settings: source organism: Pan troglodytes
[28] = target: HLA-A*25:01; assay: as above; settings: source organism: Pan troglodytes
[29] = target: HLA-B*37:01; assay: as above; settings: source organism: Pan troglodytes
[30] = target: HLA-A*29:02; assay: as above; settings: source organism: Pan troglodytes
[31] = target: HLA-B*44:03; assay: as above; settings: source organism: Pan troglodytes
[32] = target: HLA-B*40:02; assay: as above; settings: source organism: Pan troglodytes
[33] = target: HLA-A*11:01; assay: as above; settings: source organism: Pan troglodytes
[34] = target: HLA-B*51:01; assay: as above; settings: source organism: Pan troglodytes
[35] = target: HLA-A*03:01; assay: as above; settings: source organism: Pan troglodytes
[36] = target: HLA-B*14:02; assay: as above; settings: source organism: Pan troglodytes
[37] = target: HLA-B*35:01; assay: as above; settings: source organism: Pan troglodytes
[38] = target: HLA-B*58:01; assay: as above; settings: source organism: Pan troglodytes
[39] = target: HLA-A*01:01; assay: as above; settings: source organism: Pan troglodytes
[40] = target: HLA-B*08:01; assay: as above; settings: source organism: Pan troglodytes
[41] = target: HLA-A*68:02; assay: as above; settings: source organism: Pan troglodytes
[42] = target: HLA-B*53:01; assay: as above; settings: source organism: Pan troglodytes
[43] = target: HLA-B*07:02; assay: as above; settings: source organism: Pan troglodytes
[44] = target: HLA-A*02:01; assay: as above; settings: source organism: Pan troglodytes
[45] = target: HLA-A*31:01; assay: as above; settings: source organism: Pan troglodytes
[46] = target: HLA-B*18:01; assay: as above; settings: source organism: Pan troglodytes
[47] = target: HLA-C*14:02; assay: IEDB peptide-MHC binding, purified MHC/direct/fluorescence; filed as Kd, often an IC50 or EC50 that approximates it; ≥ and ≤ were set here for values at or beyond the usual limits of such assays; settings: source organism: Homo sapiens
[48] = target: HLA-B*15:17; assay: IEDB peptide-MHC binding, purified MHC/competitive/fluorescence; filed as Kd, often an IC50 or EC50 that approximates it; ≥ and ≤ were set here for values at or beyond the usual limits of such assays; settings: source organism: Homo sapiens
[49] = target: HLA-A*26:03; assay: as above; settings: source organism: Homo sapiens
[50] = target: HLA-A*11:01; assay: as above; settings: source organism: Homo sapiens
[51] = target: HLA-B*15:09; assay: as above; settings: source organism: Homo sapiens
[52] = target: HLA-B*08:01; assay: as above; settings: source organism: Homo sapiens
[53] = target: HLA-A*68:02; assay: as above; settings: source organism: Homo sapiens
[54] = target: HLA-A*26:02; assay: as above; settings: source organism: Homo sapiens
[55] = target: HLA-B*08:03; assay: as above; settings: source organism: Homo sapiens

Sequence: GLIPQWVTL
- Kd [1]: ≥ 5 µM
- Kd [2]: 0.458 µM
- Kd [3]: ≥ 5 µM
- Kd [4]: ≤ 0.0001 µM
- Kd [5]: ≥ 5 µM

Sequence: GMGEAAAIF
- Kd ([6]; source organism: Dengue virus 1 Singapore/S275/1990): ≥ 20 µM
- Kd [7]: 0.158 µM

Sequence: LLTEVETYV
- Kd [8]: ≥ 20 µM
- Kd [9]: ≥ 20 µM
- Kd [10]: ≥ 20 µM
- Kd [11]: ≤ 0.001 µM
- Kd [12]: 0.002 µM
- Kd ([6]; source organism: Influenza A virus (A/tern/Australia/1/04(H2N5))): ≥ 20 µM
- Kd [13]: ≤ 0.001 µM
- Kd [14]: ≥ 20 µM
- Kd [15]: ≥ 20 µM
- Kd [16]: ≤ 0.001 µM
- Kd [17]: ≥ 20 µM
- Kd [18]: ≤ 0.001 µM
- Kd [19]: ≥ 20 µM
- Kd [20]: ≥ 20 µM
- Kd [21]: ≥ 20 µM
- Kd [22]: ≥ 20 µM
- Kd [23]: ≤ 0.001 µM
- Kd [24]: ≥ 20 µM
- Kd [25]: 0.012 µM
- Kd [26]: ≥ 20 µM

Sequence: RPPYSSYGY
- IC50 [27]: ≥ 20 µM
- IC50 [28]: ≥ 20 µM
- IC50 [29]: ≥ 20 µM
- IC50 [30]: 0.252 µM
- IC50 [31]: ≥ 20 µM
- IC50 [32]: ≥ 20 µM
- IC50 [33]: ≥ 20 µM
- IC50 [34]: ≥ 20 µM
- IC50 [35]: ≥ 20 µM
- IC50 [36]: ≥ 20 µM
- IC50 [37]: 0.0907 µM
- IC50 [38]: ≥ 20 µM
- IC50 [39]: ≥ 20 µM
- IC50 [40]: ≥ 20 µM
- IC50 [41]: ≥ 20 µM
- IC50 [42]: ≥ 20 µM
- IC50 [43]: ≥ 20 µM
- IC50 [44]: ≥ 20 µM
- IC50 [45]: ≥ 20 µM
- IC50 [46]: ≥ 20 µM
- Kd [47]: ≥ 20 µM

Sequence: TYSPALNKM
- Kd [48]: ≥ 20 µM
- Kd [49]: ≥ 20 µM
- Kd [50]: ≥ 20 µM
- Kd [51]: ≥ 20 µM
- Kd [52]: ≥ 20 µM
- Kd [53]: 3.22 µM
- Kd [54]: 0.531 µM
- Kd [55]: ≥ 20 µM
